# From PMC10374969, “SVCT2/SLC23A2 is a sodium-dependent urate transporter: functional properties and practical application” (The Journal of Biological Chemistry, 2023)
# Tests used:
# [1] = system: T1, O=c1[nH]c(=O)c2[nH]c(=O)[nH]c2[nH]1; experiment: cells, lysate or membranes; type: cell-based, Mus musculus; settings: pH 10, Na+ Krebs-Ringer buffer, 37 °C, 5 min, 0-3 mM urate (not saturated), labelled compound
# T1 construct: full-length, 648 aa, C-terminal EGFP tag (pEGFP-N1), transiently expressed in HEK293 cells
# [2] = system: T2, O=c1[nH]c(=O)c2[nH]c(=O)[nH]c2[nH]1; experiment: cells, lysate or membranes; type: cell-based, Homo sapiens; settings: pH 10, Na+ Krebs-Ringer buffer, 37 °C, 5 min, 0-3 mM urate (not saturated), labelled compound
# T2 construct: full-length wild type, 650 aa, C-terminal EGFP tag (pEGFP-N1), transiently expressed in HEK293 cells
Substance,Km [1] [mM],Km [2] [mM]
mouse Svct2 (Svct2/Slc23a2) (Mus musculus),3.16,
human SVCT2 (SVCT2/SLC23A2) (Homo sapiens),,3.86
